Where two headings read alike, the source gives them in different places.
Columns and labels:
[1] = target: T1, HLA-Cw*0102 on TAP deficient 721.174 cells (human (endogenous in 721.174)); experiment: FACS
[2] = target: T1, HLA-Cw*0102 on TAP deficient 721.174 …; experiment: FACS; remark: listed apart in the source

Binder	Kd [1] [nM]	Kd [2] [nM]
VAPWNSLSL	180	
VAPWNSDAL [VAPWNSDAL peptide]		140
VAPWNSFAL [VAPWNSFAL peptide]		140
VAPWNSRAL [VAPWNSRAL peptide]		190

Source: paper PMC4324016 (2014)
